Measured values reported in publication PMC6328252 (Chembiochem : a European journal of chemical biology, 2017).

Key:
[1] = target: T1, PA1618 (Pseudomonas aeruginosa, UniProt Q9I3A4); test: steady-state competitive inhibition of benzoyl-CoA hydrolysis; assay type: biochemical
[2] = target: T1, PA1618; test: X-ray crystal structure; assay type: biochemical
[3] = test system: CC(C)(COP(=O)(O)OP(=O)(O)OC[C@H]1O[C@@H](n2cnc3c(N)ncnc32)[C@H](O)[C@@H]1OP(=O)(O)O)[C@@H](O)C(=O)NCCC(=O)NCCSC(=O)c1ccccc1; test: steady-state kinetics; assay type: biochemical, Pseudomonas aeruginosa; conditions: pH 7.5; 25.0 °C
[4] = target: T1, PA1618; test: X-ray crystal structure; assay type: biochemical; remark: listed apart in the source
[5] = substrate: CC(C)(COP(=O)(O)OP(=O)(O)OC[C@H]1O[C@@H](n2cnc3c(N)ncnc32)[C@H](O)[C@@H]1OP(=O)(O)O)[C@@H](O)C(=O)NCCC(=O)NCCSC(=O)c1ccc(O)cc1; test: purified protein; assay type: biochemical, Pseudomonas aeruginosa; conditions: pH 7.5; 25.0 °C
[6] = substrate: CC(C)(COP(=O)(O)OP(=O)(O)OC[C@H]1O[C@@H](n2cnc3c(N)ncnc32)[C@H](O)[C@@H]1OP(=O)(O)O)[C@@H](O)C(=O)NCCC(=O)NCCSC(=O)c1ccccc1; test: steady-state kinetics; assay type: biochemical, Pseudomonas aeruginosa; conditions: pH 7.5; 25.0 °C; remark: listed apart in the source
[7] = substrate: CCCCCC(=O)SCCNC(=O)CCNC(=O)[C@H](O)C(C)(C)COP(=O)(O)OP(=O)(O)OC[C@H]1O[C@@H](n2cnc3c(N)ncnc32)[C@H](O)[C@@H]1OP(=O)(O)O; test: steady-state kinetics; assay type: biochemical, Pseudomonas aeruginosa; conditions: pH 7.5; 25.0 °C
[8] = substrate: CC(C)(COP(=O)(O)OP(=O)(O)OC[C@H]1O[C@@H](n2cnc3c(N)ncnc32)[C@H](O)[C@@H]1OP(=O)(O)O)[C@@H](O)C(=O)NCCC(=O)NCCSC(=O)c1cc(O)c2ccccc2c1O; test: steady-state kinetics; assay type: biochemical, Pseudomonas aeruginosa; conditions: pH 7.5; 25.0 °C
[9] = substrate: CC(C)(COP(=O)(O)OP(=O)(O)OC[C@H]1O[C@@H](n2cnc3c(N)ncnc32)[C@H](O)[C@@H]1OP(=O)(O)O)[C@@H](O)C(=O)NCCC(=O)NCCSC(=O)/C=C/c1ccc(O)cc1; test: steady-state kinetics; assay type: biochemical, Pseudomonas aeruginosa; conditions: pH 7.5; 25.0 °C

`CCCCCCCCCCC(=O)SCCNC(=O)CCNC(=O)[C@H](O)C(C)(C)COP(=O)(O)OP(=O)(O)OC[C@H]1O[C@@H](n2cnc3c(N)ncnc32)[C@H](O)[C@@H]1OP(=O)(O)O` [Undecanyl-CoA] was tested, and the Ki ([1]; read-out: PA1618 Ki) was 3.4 ± 0.3 µM.

In the case of `CC(C)(COP(=O)(O)OP(=O)(O)OC[C@H]1O[C@@H](n2cnc3c(N)ncnc32)[C@H](O)[C@@H]1OP(=O)(O)O)[C@@H](O)C(=O)NCCC(=O)NCCSCC(=O)c1ccccc1` [Phenacyl-CoA], the Ki [2] is reported as 35 ± 5 µM.

In the case of “PA1618 (Pseudomonas aeruginosa PAO1; Q49A)”, the Km [3] is reported as 5.0 ± 0.3 µM, the kcat [3] is reported as 0.022 ± 0.003 s⁻¹ and the kcat/Km [3] is reported as 4400 M⁻¹ s⁻¹.

Molecule `CC(C)(COP(=O)(O)OP(=O)(O)OC[C@H]1O[C@@H](n2cnc3c(N)ncnc32)[C@H](O)[C@@H]1OP(=O)(O)O)[C@@H](O)C(=O)NCCC(=O)NCCSCC(=O)c1ccc(O)cc1O` [2,4-Dihydroxyphenacyl-CoA] has a Ki [1] of 12 ± 1 µM.

In the case of `CC(C)(COP(=O)(O)OP(=O)(O)OC[C@H]1O[C@@H](n2cnc3c(N)ncnc32)[C@H](O)[C@@H]1O)[C@@H](O)C(=O)NCCC(=O)NCCOC(=O)c1ccccc1` [Benzoyl-OdCoA], the Ki [4] is reported as 19 ± 3 µM.

B1: PA1618 (Pseudomonas aeruginosa PAO1) (protein)
chain: MSLWRQTPDLEQLNASQKNSIGDLLGIRFEAFDDESLTASMPVDSRTHQPFGLLHGGASVVLAESLGSMASYLCVDTSQYYCVGLEVNANHLRGLRSGRVTAVARAIHLGRTTHVWDIRLSGDDGKPSCIARLTMAVVPLAGRAG
B1 gave a Km [5] of 3.6 ± 0.3 µM, a kcat [5] of 9.3 ± 0.2 s⁻¹ and a kcat/Km [5] of 3.1e+06 M⁻¹ s⁻¹. It also gave a Km [6] of 12 ± 1 µM, a kcat [6] of 56 ± 1 s⁻¹ and a kcat/Km [6] of 4.6e+06 M⁻¹ s⁻¹. For the same molecule, the Km [7] was 20 ± 2 µM, the kcat [7] was 0.11 ± 0.01 s⁻¹ and the kcat/Km [7] was 5200 M⁻¹ s⁻¹. For the same molecule, the Km [8] was 2.1 ± 0.1 µM, the kcat [8] was 0.55 ± 0.01 s⁻¹ and the kcat/Km [8] was 280000 M⁻¹ s⁻¹. The Km [9] was 2.7 ± 0.2 µM, the kcat [9] was 2.5 ± 0.1 s⁻¹ and the kcat/Km [9] was 930000 M⁻¹ s⁻¹.
